The data set is described as follows: soluble on expression in E. coli; label from the status in PepcDB or PDB records.
For the sequence “MRKKISIIGAGFVGSTTAHWLAAKELGDIVLLDIVEGVPQGKALDLYEASPIEGFDVRVTGTNNYADTANSDVIVVTSGAPRKPGMSREDLIKVNADITRACISQAAPLSPNAVIIMVNNPLDAMTYLAAEVSGFPKERVIGQAGVLDAARYRTFIAMEAGVSVKDVQAMLMGGHGDEMVPLPRFSTISGIPVSEFIAPDRLAQIVERTRKGGGEIVNLLKTGSAYYAPAAATAQMVEAVLKDKKRVMPVAAYLTGQYGLNDIYFGVPVILGAGGVEKILELPLNEEEMALLNASAKAVRATLDTLKSL”, the “soluble on expression in E. coli” value was “soluble”.
With “MGSDKIHHHHHHMTHRITILCDNTVGPVSGTLGEHGFAALVEWEGGSLLFDTGMGETLLRNAQRLGRNLAAVPRVVISHGHYDHGGGLWPLLRTCGSKTVLAHPGIFAPRYRVKDTGDPLSIGIPFDEAFLRGQGAHFDFNDRFREVGPGLYLTGEVPRTTAFETGDTGLFCDEAGCRPDPISDDQSLVIRTERGLVLLLGCCHAGVVNTARWALECTGETVVHTVIGGTHLGFCGREQLDETVKSLRELGVHKLVGSHCTGFAAAARLMHEFPGRFHPSAVGYTLEV”, the “soluble on expression in E. coli” value was “not soluble”.
As for “MAFDISAQDPFSILIAGVDSREDTHAGRSDTLIVLTVNPKEESIKMLSIPRDTRTEIVGRGTDDKINHAYAFGGAQMTIDTVENFLDIPIDHYVSINMDGFTQLVDALGGVSVENSFAFSQNGYQFEEGEIFLETGDEALAYARMRKQDSRGDFGRNDRQRQIVEAVIKQSAQFSSITKAGAILDAVGESVRTDLQLDGMWELQSNYRGAAKNIEQLEITGEGTRINNIYYLIIPQEEIARVQGELKSHLELSLEHHHHHH”, the “soluble on expression in E. coli” value is “soluble”.
In the case of “MGSDKIHHHHHHMTTRERIIETAITLFNEKGTKAVTTNHIAAAMEISPGNLYYHFRNKEEIIRAIFDQMDAVGFEDYEQIIAEHPAGSLAAMEETFLMIQRFNWRYRFFKRELTSLILSDPLLREKHLRVHQAMLRLVRHSIKSSIAQGVLRPMEEDELGLFAEEIWLLTLFWLNYLEVGGEDVTESTLRRGNELVRRTVCCRLTEEGARMLGRSGPAAP”, the “soluble on expression in E. coli” value is recorded as “not soluble”.
With “MNASLTPDQVSKKLKQFFSDHLPISQFMGLEIESYDGDTLILTAPLEPNINDKQTAFGGSLYNAAVMACWGMVYLKTQEENIACNQVVTEGNMKYIAPVYGRIRAICHAPDEEELANFFDHFERKGKARISLEAAIYNDACVMKIEPETKPSVKFNGQYAILKNQ” the entry was “soluble”; with “GPGSMAIPPLRASDLSSPSPSIAPQRERTRSVGTRLRTSITRDDAERVLPASSSQVETLARDATTTCEQQLMQEEELCGPSYREVEGRRPSRALSPSGAGDTSGVEDGGRARGREYVEDSDDEDVYNSHVARRIRAFLDSIKAEDFTRNPSPVDVTGMAANGEGIDEEALRQQWLERATVDEARSIAAEAQRELLIVLHDAITLETDLAEMSEDAAVLERAVNHREETVEMLKMQLSIADEYNEELHGAKKEALRKLSDAKTEIALLSQRNATLSKQLHEKEKALQLSLARSASASARTSPPAAERRDEGTITTAELQSALIAATASTGLPNNGSLSTPSSPAQHGECELKGMLRKLQLVCDTLQSTVTAKADLDQQLRQWTMGVGESRADAAACGSASSDAGISQPHGERCAPTDAEQRLLRRRCEDVARCIDSLENDIRMLRAKVRAQQACTDAVEGGSAGRRRSAAEAEAATRPQPVETPGPASASATLPEGPGGSGGCAEPADSNLAFLQRQLDRAQADARRLESELRAEREKSQRQSAAEKKLLENVAYLTRKLRAREALDREARLQRRGEKGGTHGDGGDTADGRRTLLYPHRFSHGDSAGVRRGASTAAGDVCGEGAPTSALRRVNREADAVGMGAATAAARKGRANSQELRQRRESVFAALRDAQRASDERRSSHVVSDTRRSSDVQTSFSPILPTSSSRDAALKASGNAVKSGTRATTPTLTPSRG”, “not soluble”.

Source of the values: the DeepSol protein solubility set.
